Measured values from the nanobody polyreactivity screen of Harvey et al. (2022).

Experiment: yeast display, Sf9 membrane polyspecificity reagent, FACS + sequencing; frameworks hold sequencing errors
Summary of the method: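 After 36–48 hours of galactose induction, yeast (Saccharomyces cerevisiae BJ5465) displaying a synthetic nanobody library were stained at 4 °C for 1 hour with 10% biotinylated, detergent-solubilized Sf9 membrane reagent. Streptavidin microbeads enriched the stained cells before FACS sorting into low and high (top ~1%) gates on anti-HA and streptavidin fluorescence. Each clone's polyreactivity label reflects its gate of origin.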

Sequence	polyreactivity (PSR sort gate)
QVQLVESGGGLVQAGGSLRLSCAASGRIFVNNAMGWYRQAPGKERELVATITSGGSTYYADSVKGRFTISRDNAKNTVYLQMNSLKPEDSAVYYCAARRWYVHYFAYGYWGQGTQVTVSS	low polyreactivity
QVQLVESGGGLVQAGGSLRLSCAASGRIFVPNNMGWYRQAPGKERDLVAAISSGGSTYADSVKGRFTISRDNAKNTFYLQLNSLKPEDTAVYYCAVGKYGTQFTQWVRKYDYWGQGTQVTVSS	low polyreactivity
QVQLVESGGGLVQAGGSLRLSCAASGRIFVQNAMGWYRQAPGKERELVAAISASGGRTSYADSVKGRFTISRDNAKNTVYLQMNSLKPEDTAVYYCAALFRVYPLTKKYGYWGQGTQVTVSS	high polyreactivity
QVQLVESGGGLVQAGGSLRLSCAASGRIFVQNAMGWYRQAPGKERELVAAISISGARTYYADSVKGRFTISRDNAKNTVYLQMNSLKPEDTAVYYCNASYRDEDDYWGQGTQVTVSS	high polyreactivity
QVQLVESGGGLVQAGGSLRLSCAASGRIFVQYAMGWYRQAPGKERELVAAISKSGVRTFYADSVKGRFTISRDNAKNTVYLQMNSLKPEDTAVYYCNKAYRVGRTEFNYWGQGTQVTVSS	high polyreactivity
QVQLVESGGGLVQAGGSLRLSCAASGRIFVRNAMGWYRQAPGKERELVAAISRSGGSTYYADSVKGRFTISRDNAKNTVYLQMNSLKPEDTAVYYCNKGFNYGGWFKKYGYWGQGTQVTVSS	high polyreactivity
QVQLVESGGGLVQAGGSLRLSCAASGRIFVRNAMGWYRQAPGKERELVAAISWRGTSTYYADSVKGRFTISRDNAKNTVYLQMNSLKPEDTAVYYCAKRISGYRGDYWGQGTQVTVSS	high polyreactivity
QVQLVESGGGLVQAGGSLRLSCAASGRIFVRNAMGWYRQAPGKERELVAGISNAGRTNYADSVKGRFTISRDNAKNTVYLQMNSLKPEDTAVYYCAKRPGYDYDYWGQGTQVTVSS	high polyreactivity
QVQLVESGGGLVQAGGSLRLSCAASGRIFVRNAMGWYRQAPGKEREMVAAISASGGSTYYADSVKGRFTISRDNAKNTVYLLMNSLKPEDTAVYYCNAYRAYYDLAYGYWGQGTQVTVSS	high polyreactivity
QVQLVESGGGLVQAGGSLRLSCAASGRIFVRNGMGWYRQAPGKERELVAAISASGGNTYYADSVKGRFTISRDNAKNTVYLQMNSLKPEDTAVYYCATTRRVPGEYWGQGTQVTVSS	high polyreactivity
QVQLVESGGGLVQAGGSLRLSCAASGRIFVTNTMGWYRQAPGKERELVAAIDNSAGSTYYADSVKGRFTISRDNAKNTVYLQMNSLIPEDTAVYYCAADYPPYYAYGYWGQGTQVTVSS	low polyreactivity
QVQLVESGGGLVQAGGSLRLSCAASGRIFVVNAMGWYRQAPGKERELVAAISSSSDSTYYADSVKGRFTISRDNAKNTVYLQMNSLKPEDTAVYYRAADYHYDGYWIYDYWGLGTQVTVSS	high polyreactivity
QVQLVESGGGLVQAGGSLRLSCAASGRIFVVNAMGWYRQAPGKERELVAAITRRGGSTYADSVKGRFTISRDNAKNTVYLQMNSLKPEDTAVYYCNAESYYGIFRYKYDYWGQGTQVTVSS	high polyreactivity
QVQLVESGGGLVQAGGSLRLSCAASGRIFVVYAMGWYRQAPGTETELVANITISGGRTYYADSVKGRFTISRDNAKNTVYVQMNSLKPEDTAVYYCAATSGALYYGYEYWGQGTQVTVSS	low polyreactivity
QVQLVESGGGLVQAGGSLRLSCAASGRIFVYKAMGSYRQAPGKERELVASITSSGGSTYYADSVKGRFTISRDNAKNTVYLQMNSLKPEDTAVYYCAADVQPDTRSTPEMDYWGQGTQVTVSS	low polyreactivity
QVQLVESGGGLVQAGGSLRLSCAASGRIFVYNAMGWYRQAPGKEREFVAAISWDGASTYYADSVKGRFTISRDNAKNTVYLQMNSLKPEDTAVYYCAASYRRKLYNDYWGQGTQVTVSS	low polyreactivity
QVQLVESGGGLVQAGGSLRLSCAASGRIFVYNAMGWYRQAPGKEREFVASINWSGSSTYADSVKGRFTISRDNAKNTVYLQMNSLKQEDTAVYYCAARRWRYEAYRSQYDYGYWGQGTQVTVSS	low polyreactivity
